Assay results as given in patent US20110027907A1.

How the values were obtained:
[1] = target: TfR-IgA Fc fusion protein, Leu258Ala mutant (Homo sapiens (Human)) (UniProt P01876); experiment: flow cytometry, FcαRI-Ig on CHOP cells expressing TfR-IgA Fc fusion
[2] = target: TfR-IgA Fc fusion protein, Leu257Ala mutant (Homo sapiens (Human)) (UniProt P01876); experiment: as above
[3] = target: TfR-IgA Fc fusion protein, Leu256Ala mutant (Homo sapiens (Human)) (UniProt P01876); experiment: as above
human serum IgA (human) = experiment: BIAcore, human serum IgA on CM5 chip, SSL7 mutant as analyte
[4] = target: human serum complement factor C5 (human) (UniProt P01031); experiment: cell-based or functional assay
Sequence of human serum complement factor C5 (human) (P01031 19-673 limits assumed, chain 1 of 2): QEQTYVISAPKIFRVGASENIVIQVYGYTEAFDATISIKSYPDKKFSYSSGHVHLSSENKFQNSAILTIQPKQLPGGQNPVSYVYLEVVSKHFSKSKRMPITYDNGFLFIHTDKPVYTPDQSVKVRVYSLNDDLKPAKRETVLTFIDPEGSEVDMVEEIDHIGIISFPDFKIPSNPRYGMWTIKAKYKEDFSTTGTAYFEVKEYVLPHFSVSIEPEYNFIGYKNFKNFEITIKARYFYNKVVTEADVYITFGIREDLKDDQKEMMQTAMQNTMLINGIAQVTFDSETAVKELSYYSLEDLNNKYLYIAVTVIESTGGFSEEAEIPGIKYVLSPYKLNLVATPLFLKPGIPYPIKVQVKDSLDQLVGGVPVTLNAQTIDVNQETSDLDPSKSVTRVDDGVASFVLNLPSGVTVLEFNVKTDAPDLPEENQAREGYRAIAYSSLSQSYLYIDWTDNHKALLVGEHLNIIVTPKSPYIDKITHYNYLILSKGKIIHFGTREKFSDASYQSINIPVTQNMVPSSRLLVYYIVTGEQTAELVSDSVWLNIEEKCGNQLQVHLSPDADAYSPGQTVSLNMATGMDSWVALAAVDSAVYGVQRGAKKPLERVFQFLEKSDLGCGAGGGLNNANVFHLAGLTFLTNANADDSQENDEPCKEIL
Sequence of human serum complement factor C5 (human) (P01031 678-1676 limits assumed, chain 2 of 2): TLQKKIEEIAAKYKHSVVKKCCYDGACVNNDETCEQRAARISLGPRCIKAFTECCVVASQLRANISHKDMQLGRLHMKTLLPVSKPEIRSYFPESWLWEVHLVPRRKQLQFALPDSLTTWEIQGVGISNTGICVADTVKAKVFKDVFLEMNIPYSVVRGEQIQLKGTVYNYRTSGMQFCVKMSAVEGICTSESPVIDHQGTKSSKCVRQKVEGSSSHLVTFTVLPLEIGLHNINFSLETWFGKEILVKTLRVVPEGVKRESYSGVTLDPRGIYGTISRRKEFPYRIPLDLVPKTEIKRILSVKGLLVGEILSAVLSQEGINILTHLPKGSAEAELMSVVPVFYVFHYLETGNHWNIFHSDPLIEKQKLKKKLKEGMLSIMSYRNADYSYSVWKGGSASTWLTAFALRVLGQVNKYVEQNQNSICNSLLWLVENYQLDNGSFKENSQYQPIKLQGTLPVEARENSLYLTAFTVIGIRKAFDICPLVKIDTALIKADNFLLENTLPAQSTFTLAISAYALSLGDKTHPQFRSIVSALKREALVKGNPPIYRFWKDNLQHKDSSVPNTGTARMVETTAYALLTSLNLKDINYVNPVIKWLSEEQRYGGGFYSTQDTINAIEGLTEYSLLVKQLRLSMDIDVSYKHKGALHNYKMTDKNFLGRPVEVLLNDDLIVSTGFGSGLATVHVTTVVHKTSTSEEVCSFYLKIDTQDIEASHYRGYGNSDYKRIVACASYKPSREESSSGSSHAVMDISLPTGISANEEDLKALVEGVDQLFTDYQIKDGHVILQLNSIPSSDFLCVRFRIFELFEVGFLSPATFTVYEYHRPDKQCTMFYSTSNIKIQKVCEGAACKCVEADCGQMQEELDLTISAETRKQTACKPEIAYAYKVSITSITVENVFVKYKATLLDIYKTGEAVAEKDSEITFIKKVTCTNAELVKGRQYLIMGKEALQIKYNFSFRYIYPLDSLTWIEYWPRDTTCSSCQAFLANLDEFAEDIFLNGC

[5] = target: TfR-IgA Fc fusion protein, Leu258Ala mutant (Homo sapiens (Human)) (UniProt P01876); experiment: flow cytometry, biotinylated rSSL7 on CHOP cells expressing TfR-IgA Fc fusion
[6] = target: TfR-IgA Fc fusion protein, Leu257Ala mutant (Homo sapiens (Human)) (UniProt P01876); experiment: as above
[7] = target: TfR-IgA Fc fusion protein, Leu256Ala mutant (Homo sapiens (Human)) (UniProt P01876); experiment: as above
[8] = target: TfR-IgA Fc fusion protein, Asn316Ala mutant (Homo sapiens (Human)) (UniProt P01876); experiment: as above
Sequence of TfR-IgA Fc fusion protein, Asn316Ala mutant (Homo sapiens (Human)) (P01876 123-331 N197A limits assumed): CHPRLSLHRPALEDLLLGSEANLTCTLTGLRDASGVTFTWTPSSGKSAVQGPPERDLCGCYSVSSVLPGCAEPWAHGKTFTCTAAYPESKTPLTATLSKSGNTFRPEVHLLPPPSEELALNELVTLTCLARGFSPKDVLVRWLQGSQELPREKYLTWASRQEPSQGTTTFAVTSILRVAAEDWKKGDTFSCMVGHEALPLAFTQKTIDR

[9] = target: TfR-IgA Fc fusion protein, His317Ala mutant (Homo sapiens (Human)) (UniProt P01876); experiment: as above
Sequence of TfR-IgA Fc fusion protein, His317Ala mutant (Homo sapiens (Human)) (P01876 123-331 H198A limits assumed): as the sequence (P01876 123-331 N197A limits assumed) above, with A75N, H76A counted along it

Sequence of TfR-IgA Fc fusion protein, Leu258Ala mutant (Homo sapiens (Human)) (P01876 123-331 L139A limits assumed): as the sequence (P01876 123-331 N197A limits assumed) above, with L17A, A75N counted along it
Sequence of TfR-IgA Fc fusion protein, Leu257Ala mutant (Homo sapiens (Human)) (P01876 123-331 L138A limits assumed): as the sequence (P01876 123-331 N197A limits assumed) above, with L16A, A75N counted along it
Sequence of TfR-IgA Fc fusion protein, Leu256Ala mutant (Homo sapiens (Human)) (P01876 123-331 L137A limits assumed): as the sequence (P01876 123-331 N197A limits assumed) above, with L15A, A75N counted along it

| Substance | Change (fold in KD against SSL7 wild-type) (human serum IgA (human)) | Kd (human serum IgA (human)) | further results |
| --- | --- | --- | --- |
| FcαRI-Ig (from UniProt P24071 22-227) (Fc fusion) | – | – | fold reduction of binding against WT IgA Fc [1]: > 100 fold; fold reduction of binding against WT IgA Fc [2]: 2.3 fold; fold reduction of binding against WT IgA Fc [3]: 3.3 fold |
| SSL7 mutant L79A | 91 fold | 100 nM | – |
| SSL7 mutant N38T | 35 fold | 38 nM | – |
| SSL7 mutant N83A | 4 fold | 4 nM | – |
| SSL7 mutant P82A | 35 fold | 39 nM | – |
| SSL7 mutant R44A | 3.2 fold | 3.6 nM | – |
| SSL7 wild-type (haemolysis assay of FIG. 9) | – | – | haemolysis at 2 µM, % of the maximum lysis [4]: 10%; inhibition of haemolysis at 2 µM [4]: 90% |
| recombinant SSL7 (GL1 S. aureus Greenlane), wild type | – | – | fold reduction of binding against WT IgA Fc [5]: 6.5 fold; fold reduction of binding against WT IgA Fc [6]: 15.4 fold; fold reduction of binding against WT IgA Fc [7]: 11.5 fold; fold reduction of binding against WT IgA Fc [8]: 1.8 fold; fold reduction of binding against WT IgA Fc [9]: 1.2 fold |
